Test results taken from publication PMC6531875.

Target: Csk (UniProt P41240)
Assay: anti-Flag co-IP, anti-Myc blot
Conditions: reference: Myc-Cbp wild type; sites Y317

## Cbp (Csk binding protein, Cbp/PAG1) (from UniProt Q9NWQ8) Myc-Cbp Y317F
  binding against the reference: weaker
